Data on 61 substances can be found in patent US11230581B2, “Peptides and combination of peptides for use in immunotherapy against ovarian cancer and other cancers” (Immatics Biotechnologies GmbH, priority 2015, dated 2022).

In this assay the target is HLA-A*02:01 (Homo sapiens, UniProt P04439, D140Y/D185E/D98H/E176V/E277Q/G131W/G231S/I119V/I121R/I166T/I218V/L300P/L318F/N151K/N90K/P208A/P217A/Q86G/Q94H/R138H/R169H/T345S). The experiment in a line: MHC binding assay (UV-ligand exchange, β2m ELISA, peptide exchange yield). The following applies: binding of HLA-class I restricted peptides to HLA-A*02:01, UV-ligand exchange. An outline of the steps:
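Peptide-MHC complexes formed by UV-ligand exchange, cleaving a UV-sensitive placeholder peptide in favour of the test peptide. Exchange yield measured by ELISA: monomers diluted 100-fold onto streptavidin-coated plates, 1 h 37 °C, detected with 2 ug/ml HRP anti-β2m and TMB, absorbance at 450 nm.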
Background: In an ELISA, binding on a coated surface is turned into a signal by an enzyme label.

As to “502 (RLLAQVPGL; listed as Homo sapiens) [compound 502]”, the “Peptide exchange (MHC class I binding score, peptide exchange yield)” value (shortened to “Peptide exchange”) is recorded as ““+++” (≥50 = +++)”.
With “503 (SLNHFTHSV; listed as Homo sapiens) [compound 503]”, the “Peptide exchange” value was ““+++” (≥50 = +++)”.
Turning to “504 (GLSDGNPSL; listed as Homo sapiens) [compound 504]”, the “Peptide exchange” value is recorded as ““++” (≥20% = ++)”.
For the substance “505 (SLAPGDVVRQV; listed as Homo sapiens) [compound 505]”, the “Peptide exchange” value is on record as ““++” (≥20% = ++)”.
“506 (KLLGKVETA; listed as Homo sapiens) [compound 506]”: the “Peptide exchange” value is reported as ““+++” (≥50 = +++)”.
The result for “507 (KLIDDQDISISL; listed as Homo sapiens) [compound 507]” reads ““+++” (≥50 = +++)”; that for “508 (ILAQEQLVVGV; listed as Homo sapiens) [compound 508]”, ““+++” (≥50 = +++)”.
With “509 (FLFDTKPLIV; listed as Homo sapiens) [compound 509]”, the “Peptide exchange” value was ““+++” (≥50 = +++)”.
On to “510 (KLYSVVSQL; listed as Homo sapiens) [compound 510]”, for which the “Peptide exchange” value is given as ““++” (≥20% = ++)”.
The result for “511 (FLDPYCSASV; listed as Homo sapiens) [compound 511]” reads ““++” (≥20% = ++)”; that for “512 (SLSEIVPCL; listed as Homo sapiens) [compound 512]”, ““+++” (≥50 = +++)”.
In the case of “513 (SLWPSPEQL; listed as Homo sapiens) [compound 513]”, the “Peptide exchange” value is listed as ““++” (≥20% = ++)”.
For the substance “514 (ILVDWLVQV; listed as Homo sapiens) [compound 514]”, the “Peptide exchange” value was ““+++” (≥50 = +++)”.
Turning to “515 (LLQELVLFL; listed as Homo sapiens) [compound 515]”, the “Peptide exchange” value is on record as ““+++” (≥50 = +++)”.
In the case of “516 (AVGPASILKEV; listed as Homo sapiens) [compound 516]”, the “Peptide exchange” value is given as ““++” (≥20% = ++)”.
Consider “517 (LLMPIPEGLTL; listed as Homo sapiens) [compound 517]”, for which the “Peptide exchange” value is recorded as ““+++” (≥50 = +++)”.
With “518 (KLNAEVACV; listed as Homo sapiens) [compound 518]”, the “Peptide exchange” value was ““+++” (≥50 = +++)”.
As to “519 (GLLHLTLLL; listed as Homo sapiens) [compound 519]”, the “Peptide exchange” value is ““+++” (≥50 = +++)”.
Regarding “520 (LAVHPSGVAL; listed as Homo sapiens) [compound 520]”, the “Peptide exchange” value is recorded as ““+” (≥10% = +)”.
For the substance “521 (MLLTKLPTI; listed as Homo sapiens) [compound 521]”, the “Peptide exchange” value was ““+++” (≥50 = +++)”.
Then “522 (TLWYRSPEV; listed as Homo sapiens) [compound 522]”, with ““++” (≥20% = ++)”.
Then “523 (YQIPRTFTL; listed as Homo sapiens) [compound 523]”, with ““++” (≥20% = ++)”; and “524 (ALIENLTHQI; listed as Homo sapiens) [compound 524]”, with ““++” (≥20% = ++)”; and “525 (VLLEAGEGLVTI; listed as Homo sapiens) [compound 525]”, with ““+++” (≥50 = +++)”.
With “526 (RLAEVGQYEQV; listed as Homo sapiens) [compound 526]”, the “Peptide exchange” value is ““++” (≥20% = ++)”.
“527 (FLLEPGNLEV; listed as Homo sapiens) [compound 527]”: the “Peptide exchange” value was ““++++” (≥75% = ++++)”.
Then “528 (SVAEGRALMSV; listed as Homo sapiens) [compound 528]”, with ““+++” (≥50 = +++)”.
Regarding “529 (LLADELITV; listed as Homo sapiens) [compound 529]”, the “Peptide exchange” value is ““+++” (≥50 = +++)”.
In the case of “530 (VMYADIGGMDI; listed as Homo sapiens) [compound 530]”, the “Peptide exchange” value is ““+++” (≥50 = +++)”.
Regarding “531 (YTLPIASSIRL; listed as Homo sapiens) [compound 531]”, the “Peptide exchange” value is ““+++” (≥50 = +++)”.
Consider “537 (TLAPGEVLRSV; listed as Homo sapiens) [compound 537]”, for which the “Peptide exchange” value is listed as ““+++” (≥50 = +++)”.
For the substance “538 (LLLAHIIAL; listed as Homo sapiens) [compound 538]”, the “Peptide exchange” value is ““++” (≥20% = ++)”.
As to “539 (ALFDAQAQV; listed as Homo sapiens) [compound 539]”, the “Peptide exchange” value is recorded as ““+++” (≥50 = +++)”.
In the case of “541 (SMLEPVPEL; listed as Homo sapiens) [compound 541]”, the “Peptide exchange” value was ““+++” (≥50 = +++)”.
Turning to “542 (RVWDISTVSSV; listed as Homo sapiens) [compound 542]”, the “Peptide exchange” value is given as ““+++” (≥50 = +++)”.
For “543 (GLLPTPITQQASL; listed as Homo sapiens) [compound 543]”, the “Peptide exchange” value is reported as ““+++” (≥50 = +++)”.
Regarding “544 (LLWDVPAPSL; listed as Homo sapiens) [compound 544]”, the “Peptide exchange” value is reported as ““+++” (≥50 = +++)”.
As for “545 (LLADLLHNV; listed as Homo sapiens) [compound 545]”, the “Peptide exchange” value is ““+++” (≥50 = +++)”.
Take “546 (VMIAGKVAVV; listed as Homo sapiens) [compound 546]”: the “Peptide exchange” value is given as ““+++” (≥50 = +++)”.
On to “547 (TLDITPHTV; listed as Homo sapiens) [compound 547]”, for which the “Peptide exchange” value is on record as ““+++” (≥50 = +++)”.
Consider “548 (ALWENPESGEL; listed as Homo sapiens) [compound 548]”, for which the “Peptide exchange” value is ““++” (≥20% = ++)”.
Regarding “549 (AMLENASDIKL; listed as Homo sapiens) [compound 549]”, the “Peptide exchange” value is recorded as ““+++” (≥50 = +++)”.
With “550 (FLYDEIEAEVNL; listed as Homo sapiens) [compound 550]”, the “Peptide exchange” value is recorded as ““+++” (≥50 = +++)”.
For “551 (KLYESLLPFA; listed as Homo sapiens) [compound 551]”, the “Peptide exchange” value was ““+++” (≥50 = +++)”.
With “552 (GLLDLPFRVGV; listed as Homo sapiens) [compound 552]”, the “Peptide exchange” value is ““++++” (≥75% = ++++)”.
With “553 (SLLNQDLHWSL; listed as Homo sapiens) [compound 553]”, the “Peptide exchange” value is listed as ““++++” (≥75% = ++++)”.
The result for “554 (LLMPSSEDLLL; listed as Homo sapiens) [compound 554]” reads ““+++” (≥50 = +++)”.
“555 (YVLEGLKSV; listed as Homo sapiens) [compound 555]”: the “Peptide exchange” value is ““+++” (≥50 = +++)”.
Turning to “556 (FLTDLEDLTL; listed as Homo sapiens) [compound 556]”, the “Peptide exchange” value is reported as ““+++” (≥50 = +++)”.
As to “557 (KLYDDMIRL; listed as Homo sapiens) [compound 557]”, the “Peptide exchange” value is ““+++” (≥50 = +++)”.
For the substance “558 (GLLENIPRV; listed as Homo sapiens) [compound 558]”, the “Peptide exchange” value is recorded as ““+++” (≥50 = +++)”.
On to “559 (VTVPPGPSL; listed as Homo sapiens) [compound 559]”, for which the “Peptide exchange” value is ““++” (≥20% = ++)”.
On to “560 (ALWDIETGQQTTT; listed as Homo sapiens) [compound 560]”, for which the “Peptide exchange” value is recorded as ““+++” (≥50 = +++)”.
“561 (YLQLTQSEL; listed as Homo sapiens) [compound 561]”: the “Peptide exchange” value is listed as ““+++” (≥50 = +++)”.
Then “562 (YLEELPEKLKL; listed as Homo sapiens) [compound 562]”, with ““+++” (≥50 = +++)”; and “563 (WLLPYNGVTV; listed as Homo sapiens) [compound 563]”, with ““+++” (≥50 = +++)”.
Take “564 (TVTNAVVTV; listed as Homo sapiens) [compound 564]”: the “Peptide exchange” value was ““+++” (≥50 = +++)”.
As to “565 (ALQETPTSV; listed as Homo sapiens) [compound 565]”, the “Peptide exchange” value is given as ““++” (≥20% = ++)”.
With “566 (VIADGGIQNV; listed as Homo sapiens) [compound 566]”, the “Peptide exchange” value is ““++” (≥20% = ++)”.
Consider “567 (SLLPLDDIVRV; listed as Homo sapiens) [compound 567]”, for which the “Peptide exchange” value is given as ““+++” (≥50 = +++)”.
Then “568 (TLYDIAHTPGV; listed as Homo sapiens) [compound 568]”, with ““++++” (≥75% = ++++)”.
